Measured values from PMC9482650, “Quantitative fragmentomics allow affinity mapping of interactomes” (Nature Communications, 2022).

Assays:
Assay in all cases: holdup assay
Design in all cases: key: below the threshold = too weak to quantify, mostly under pKd 3.1 to 4
GRIP2_7, Q9C0E4 = target: GRIP2_7, Q9C0E4
GRIP1_4, Q9Y3R0 = target: T1, GRIP1_4, Q9Y3R0
T1 sequence (Q9Y3R0 467-571, limits assumed, looked up): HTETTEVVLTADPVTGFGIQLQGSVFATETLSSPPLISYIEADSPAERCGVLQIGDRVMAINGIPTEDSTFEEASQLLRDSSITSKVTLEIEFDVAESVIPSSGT

DLG3_3, Q92796 = target: T2, DLG3_3, Q92796
T2 sequence (Q92796 374-475, limits assumed, looked up): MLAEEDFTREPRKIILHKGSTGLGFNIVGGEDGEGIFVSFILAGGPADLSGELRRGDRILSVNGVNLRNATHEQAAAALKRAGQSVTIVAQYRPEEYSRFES

LIMK2, P53671 = target: LIMK2, P53671
FRMPD2_2, Q68DX3 = target: FRMPD2_2, Q68DX3
SCRIB_3, Q14160 = target: SCRIB_3, Q14160
APBA1_2, Q02410 = target: T3, APBA1_2, Q02410
T3 sequence (Q02410 742-832, limits assumed, looked up): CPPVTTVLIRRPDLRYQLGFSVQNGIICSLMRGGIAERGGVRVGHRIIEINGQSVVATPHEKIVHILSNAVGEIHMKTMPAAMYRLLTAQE

LNX1_3, Q8TBB1 = target: LNX1_3, Q8TBB1
AHNAK1, Q09666 = target: AHNAK1, Q09666
MAGI2_6, Q86UL8 = target: MAGI2_6, Q86UL8
MPP2, Q14168 = target: T4, MPP2, Q14168
T4 sequence (Q14168 180-250, limits assumed, looked up): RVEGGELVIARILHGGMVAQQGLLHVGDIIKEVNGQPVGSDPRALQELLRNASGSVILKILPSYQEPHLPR

FRMPD2_1, Q68DX3 = target: FRMPD2_1, Q68DX3
FRMPD4, Q14CM0 = target: FRMPD4, Q14CM0
NHERF4_2, Q86UT5 = target: NHERF4_2, Q86UT5
GRIP1_7, Q9Y3R0 = target: T5, GRIP1_7, Q9Y3R0
T5 sequence (Q9Y3R0 999-1096, limits assumed, looked up): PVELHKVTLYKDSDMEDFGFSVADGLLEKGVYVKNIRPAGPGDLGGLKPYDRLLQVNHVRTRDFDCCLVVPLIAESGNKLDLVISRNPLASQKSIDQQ

PTPN13_1, Q12923 = target: T6, PTPN13_1, Q12923
T6 sequence (Q12923 1088-1188, limits assumed, looked up): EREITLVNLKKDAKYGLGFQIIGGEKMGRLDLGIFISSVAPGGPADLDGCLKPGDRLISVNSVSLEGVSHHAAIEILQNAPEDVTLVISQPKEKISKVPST

PDZD2_2, O15018 = target: T7, PDZD2_2, O15018
T7 sequence (O15018 329-429, limits assumed, looked up): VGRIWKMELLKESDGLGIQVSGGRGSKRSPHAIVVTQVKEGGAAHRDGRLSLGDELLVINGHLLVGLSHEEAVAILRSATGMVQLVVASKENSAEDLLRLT

NOS1, P29475 = target: NOS1, P29475
GRID2IP_2, A4D2P6 = target: GRID2IP_2, A4D2P6
DLG4_2, P78352 = target: DLG4_2, P78352
MPDZ_12, O75970 = target: T8, MPDZ_12, O75970
T8 sequence (O75970 1857-1958, limits assumed, looked up): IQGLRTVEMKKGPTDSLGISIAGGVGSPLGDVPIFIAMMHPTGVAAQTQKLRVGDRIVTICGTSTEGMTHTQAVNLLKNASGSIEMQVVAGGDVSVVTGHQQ

MAGI2_4, Q86UL8 = target: MAGI2_4, Q86UL8
NHERF3_4, Q5T2W1 = target: T9, NHERF3_4, Q5T2W1
T9 sequence (Q5T2W1 373-468, limits assumed, looked up): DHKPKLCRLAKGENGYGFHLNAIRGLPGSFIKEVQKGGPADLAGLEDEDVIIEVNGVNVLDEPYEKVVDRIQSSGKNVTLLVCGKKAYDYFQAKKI

PARD3_3, Q8TEW0 = target: PARD3_3, Q8TEW0
DLG1_2, Q12959 = target: DLG1_2, Q12959
LIN7B, Q9HAP6 = target: T10, LIN7B, Q9HAP6
T10 sequence (Q9HAP6 88-185, limits assumed, looked up): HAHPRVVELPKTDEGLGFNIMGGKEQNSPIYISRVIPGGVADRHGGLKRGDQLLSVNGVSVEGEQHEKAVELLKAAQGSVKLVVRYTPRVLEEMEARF

SNTG2, Q9NY99 = target: T11, SNTG2, Q9NY99
T11 sequence (Q9NY99 68-166, limits assumed, looked up): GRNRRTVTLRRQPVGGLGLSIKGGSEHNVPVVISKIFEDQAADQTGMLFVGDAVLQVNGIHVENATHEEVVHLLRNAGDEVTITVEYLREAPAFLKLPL

[1] = plain residues with an end cap or a label only (N-terminal biotin on a linker: ttds)
[2] = plain residues with an end cap or a label only (N-terminal biotin on a linker: none)

Sequence of LIMK2, P53671 (P53671 143-248): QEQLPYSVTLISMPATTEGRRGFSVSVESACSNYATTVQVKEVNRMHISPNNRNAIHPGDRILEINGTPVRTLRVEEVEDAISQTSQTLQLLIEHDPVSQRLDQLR
Sequence of FRMPD2_1, Q68DX3 (Q68DX3 770-861): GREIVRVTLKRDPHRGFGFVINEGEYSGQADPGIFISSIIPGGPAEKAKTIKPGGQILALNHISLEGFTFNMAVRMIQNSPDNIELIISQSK
Sequence of AHNAK1, Q09666 (Q09666 4-100): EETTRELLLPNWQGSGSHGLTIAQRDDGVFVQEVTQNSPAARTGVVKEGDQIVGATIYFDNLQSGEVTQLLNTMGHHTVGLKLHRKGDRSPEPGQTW
Sequence of FRMPD2_2, Q68DX3 (Q68DX3 944-1038): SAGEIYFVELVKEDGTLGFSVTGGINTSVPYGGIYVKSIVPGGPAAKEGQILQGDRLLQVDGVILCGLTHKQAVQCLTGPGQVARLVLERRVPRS
Sequence of MAGI2_6, Q86UL8 (Q86UL8 1141-1229): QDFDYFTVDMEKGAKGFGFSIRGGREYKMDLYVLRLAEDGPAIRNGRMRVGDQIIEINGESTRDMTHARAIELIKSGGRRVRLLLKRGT
Sequence of MAGI2_4, Q86UL8 (Q86UL8 772-865): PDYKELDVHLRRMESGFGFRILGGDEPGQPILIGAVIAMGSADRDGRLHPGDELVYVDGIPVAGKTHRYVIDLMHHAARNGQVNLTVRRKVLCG
Sequence of DLG1_2, Q12959 (Q12959 314-412): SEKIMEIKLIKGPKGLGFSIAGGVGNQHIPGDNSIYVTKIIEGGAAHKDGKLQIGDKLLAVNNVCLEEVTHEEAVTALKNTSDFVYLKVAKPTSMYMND
Sequence of LNX1_3, Q8TBB1 (Q8TBB1 500-596): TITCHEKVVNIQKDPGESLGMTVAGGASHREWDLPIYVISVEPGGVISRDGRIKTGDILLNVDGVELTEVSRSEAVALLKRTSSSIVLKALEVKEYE
Sequence of NHERF4_2, Q86UT5 (Q86UT5 220-308): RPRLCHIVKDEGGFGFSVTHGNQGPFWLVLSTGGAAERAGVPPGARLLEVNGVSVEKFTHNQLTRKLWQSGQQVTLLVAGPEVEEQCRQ
Sequence of FRMPD4, Q14CM0 (Q14CM0 67-160): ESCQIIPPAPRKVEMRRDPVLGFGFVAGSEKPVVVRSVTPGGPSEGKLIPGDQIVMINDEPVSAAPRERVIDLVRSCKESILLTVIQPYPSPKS
Sequence of NOS1, P29475 (P29475 9-101): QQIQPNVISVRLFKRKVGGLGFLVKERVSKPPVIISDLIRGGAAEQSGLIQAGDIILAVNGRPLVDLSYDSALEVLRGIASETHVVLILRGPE
Sequence of GRIP2_7, Q9C0E4 (Q9C0E4 934-1023): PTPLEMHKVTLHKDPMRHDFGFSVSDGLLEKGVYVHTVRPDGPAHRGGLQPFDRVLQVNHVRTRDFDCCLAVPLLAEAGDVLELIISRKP
Sequence of GRID2IP_2, A4D2P6 (A4D2P6 272-370): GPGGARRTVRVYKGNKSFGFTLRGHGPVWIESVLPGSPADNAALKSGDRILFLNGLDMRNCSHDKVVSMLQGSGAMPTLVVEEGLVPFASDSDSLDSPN
Sequence of DLG4_2, P78352 (P78352 155-259): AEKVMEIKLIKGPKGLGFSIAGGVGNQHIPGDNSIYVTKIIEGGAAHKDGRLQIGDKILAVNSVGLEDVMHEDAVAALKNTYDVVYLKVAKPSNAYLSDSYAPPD
Sequence of PARD3_3, Q8TEW0 (Q8TEW0 582-685): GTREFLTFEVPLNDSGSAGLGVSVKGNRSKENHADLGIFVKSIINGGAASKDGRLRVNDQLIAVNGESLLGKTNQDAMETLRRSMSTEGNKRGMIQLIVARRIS
Sequence of SCRIB_3, Q14160 (Q14160 999-1103): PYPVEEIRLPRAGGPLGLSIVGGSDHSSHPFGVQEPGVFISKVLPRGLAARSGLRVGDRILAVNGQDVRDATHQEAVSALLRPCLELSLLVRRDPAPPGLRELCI

PVRVCEETSL [OTULIN, Q96BN8]
pKd (GRIP2_7, Q9C0E4; [1]): 3.66 | pKd (GRIP1_4, Q9Y3R0; [1]): below the threshold | pKd (DLG3_3, Q92796; [1]): 4.02 | pKd (LIMK2, P53671; [1]): below the threshold | pKd (FRMPD2_2, Q68DX3; [1]): 3.51 | pKd (SCRIB_3, Q14160; [1]): 5.64 | pKd (APBA1_2, Q02410; [1]): 3.95 | pKd (LNX1_3, Q8TBB1; [1]): below the threshold | pKd (AHNAK1, Q09666; [1]): below the threshold | pKd (MAGI2_6, Q86UL8; [1]): 4.06 | pKd (MPP2, Q14168; [1]): below the threshold | pKd (FRMPD2_1, Q68DX3; [1]): below the threshold | pKd (FRMPD4, Q14CM0; [1]): 4.59 | pKd (NHERF4_2, Q86UT5; [1]): below the threshold | pKd (GRIP1_7, Q9Y3R0; [1]): 3.75 | pKd (PTPN13_1, Q12923; [1]): below the threshold | pKd (PDZD2_2, O15018; [1]): 3.54 | pKd (NOS1, P29475; [1]): 3.79 | pKd (GRID2IP_2, A4D2P6; [1]): 4.75 | pKd (DLG4_2, P78352; [1]): 4.2 | pKd (MPDZ_12, O75970; [1]): below the threshold | pKd (MAGI2_4, Q86UL8; [1]): below the threshold | pKd (NHERF3_4, Q5T2W1; [1]): below the threshold | pKd (PARD3_3, Q8TEW0; [1]): 3.59 | pKd (DLG1_2, Q12959; [1]): 4.56 | pKd (LIN7B, Q9HAP6; [1]): 3.85 | pKd (SNTG2, Q9NY99; [1]): 4.63

VDFPPKESSL [ACVR2A, P27037]
pKd (GRIP2_7, Q9C0E4; [1]): below the threshold | pKd (GRIP1_4, Q9Y3R0; [1]): below the threshold | pKd (DLG3_3, Q92796; [1]): below the threshold | pKd (LIMK2, P53671; [1]): below the threshold | pKd (FRMPD2_2, Q68DX3; [1]): below the threshold | pKd (SCRIB_3, Q14160; [1]): 4.88 | pKd (APBA1_2, Q02410; [1]): 3.33 | pKd (LNX1_3, Q8TBB1; [1]): below the threshold | pKd (AHNAK1, Q09666; [1]): below the threshold | pKd (MAGI2_6, Q86UL8; [1]): 3.69 | pKd (MPP2, Q14168; [1]): below the threshold | pKd (FRMPD2_1, Q68DX3; [1]): 3.82 | pKd (FRMPD4, Q14CM0; [1]): below the threshold | pKd (NHERF4_2, Q86UT5; [1]): below the threshold | pKd (GRIP1_7, Q9Y3R0; [1]): 3.47 | pKd (PTPN13_1, Q12923; [1]): below the threshold | pKd (PDZD2_2, O15018; [1]): 3.63 | pKd (NOS1, P29475; [1]): below the threshold | pKd (GRID2IP_2, A4D2P6; [1]): 3.48 | pKd (DLG4_2, P78352; [1]): 3.33 | pKd (MPDZ_12, O75970; [1]): below the threshold | pKd (MAGI2_4, Q86UL8; [1]): below the threshold | pKd (NHERF3_4, Q5T2W1; [1]): below the threshold | pKd (PARD3_3, Q8TEW0; [1]): below the threshold | pKd (DLG1_2, Q12959; [1]): 4.24 | pKd (LIN7B, Q9HAP6; [1]): 3.54 | pKd (SNTG2, Q9NY99; [1]): 4.11

SGSRPSATVV [HPV73-E6, Q82005]
pKd (GRIP2_7, Q9C0E4; [1]): 3.56 | pKd (GRIP1_4, Q9Y3R0; [1]): below the threshold | pKd (DLG3_3, Q92796; [1]): below the threshold | pKd (LIMK2, P53671; [1]): below the threshold | pKd (FRMPD2_2, Q68DX3; [1]): below the threshold | pKd (SCRIB_3, Q14160; [1]): below the threshold | pKd (APBA1_2, Q02410; [1]): 4.02 | pKd (LNX1_3, Q8TBB1; [1]): below the threshold | pKd (AHNAK1, Q09666; [1]): below the threshold | pKd (MAGI2_6, Q86UL8; [1]): below the threshold | pKd (MPP2, Q14168; [1]): below the threshold | pKd (FRMPD2_1, Q68DX3; [1]): 3.51 | pKd (FRMPD4, Q14CM0; [1]): below the threshold | pKd (NHERF4_2, Q86UT5; [1]): below the threshold | pKd (GRIP1_7, Q9Y3R0; [1]): 3.83 | pKd (PTPN13_1, Q12923; [1]): 3.61 | pKd (PDZD2_2, O15018; [1]): 4.11 | pKd (NOS1, P29475; [1]): 3.8 | pKd (GRID2IP_2, A4D2P6; [1]): below the threshold | pKd (DLG4_2, P78352; [1]): 4.14 | pKd (MPDZ_12, O75970; [1]): below the threshold | pKd (MAGI2_4, Q86UL8; [1]): 4.49 | pKd (NHERF3_4, Q5T2W1; [1]): 3.6 | pKd (PARD3_3, Q8TEW0; [1]): 3.76 | pKd (DLG1_2, Q12959; [1]): 4.3 | pKd (LIN7B, Q9HAP6; [1]): below the threshold | pKd (SNTG2, Q9NY99; [1]): below the threshold

NLNSSRVPDLLV [SARS-CoV2-E, P0DTC4]
pKd (GRIP2_7, Q9C0E4; [2]): below the threshold | pKd (GRIP1_4, Q9Y3R0; [2]): below the threshold | pKd (DLG3_3, Q92796; [2]): below the threshold | pKd (LIMK2, P53671; [2]): below the threshold | pKd (FRMPD2_2, Q68DX3; [2]): below the threshold | pKd (SCRIB_3, Q14160; [2]): below the threshold | pKd (APBA1_2, Q02410; [2]): below the threshold | pKd (LNX1_3, Q8TBB1; [2]): below the threshold | pKd (AHNAK1, Q09666; [2]): below the threshold | pKd (MAGI2_6, Q86UL8; [2]): below the threshold | pKd (MPP2, Q14168; [2]): below the threshold | pKd (FRMPD2_1, Q68DX3; [2]): below the threshold | pKd (FRMPD4, Q14CM0; [2]): 3.48 | pKd (NHERF4_2, Q86UT5; [2]): below the threshold | pKd (GRIP1_7, Q9Y3R0; [2]): below the threshold | pKd (PTPN13_1, Q12923; [2]): below the threshold | pKd (PDZD2_2, O15018; [2]): below the threshold | pKd (NOS1, P29475; [2]): below the threshold | pKd (GRID2IP_2, A4D2P6; [2]): below the threshold | pKd (DLG4_2, P78352; [2]): below the threshold | pKd (MPDZ_12, O75970; [2]): below the threshold | pKd (MAGI2_4, Q86UL8; [2]): 3.65 | pKd (NHERF3_4, Q5T2W1; [2]): below the threshold | pKd (PARD3_3, Q8TEW0; [2]): 3.82 | pKd (DLG1_2, Q12959; [2]): below the threshold | pKd (LIN7B, Q9HAP6; [2]): below the threshold | pKd (SNTG2, Q9NY99; [2]): below the threshold
